From publication PMC5645524 come the findings set out here.

For test [1], the target named is Actin of the thin filament in human ventricular myocytes (human (endogenous in ventricular myocytes)) (UniProt P68032). The experiment in a line: autocorrelation function of fluctuations of fluorescence anisotropy (confocal, about 6 molecules); in situ, A-band of isolated EDC-cross-linked myocytes from failing human left ventricles, isometric contraction in contracting solution (5 mM ATP, 0.1 mM CaCl2, pH 7.5); 20 s records, time resolution 10 ms; three-state fit. Background: Polarisation of emitted light reports the rotation of a fluorescent probe.

Test [2] shares this target. Description: autocorrelation function of fluctuations of fluorescence anisotropy (confocal, about 6 molecules); in situ, A-band of isolated EDC-cross-linked myocytes from failing human right ventricles, isometric contraction in contracting solution (5 mM ATP, 0.1 mM CaCl2, pH 7.5); 20 s records, time resolution 10 ms; three-state fit.

Take “Ventricular myosin cross-bridge carrying the exchanged fluorescent LC (from UniProt P12883 1-1935; P05976 1-194; P10916 1-166) (complex)”: the k (DISS) (rate of dissociation of the cross-bridge from the thin filament during contraction) came to 2.24 in test [1] and 2.36 in test [2].
